Data as given in article PMC9482650, “Quantitative fragmentomics allow affinity mapping of interactomes” (Nature Communications, 2022).

Columns and labels:
Assay in all cases: holdup assay
Parameters in all cases: key: below the threshold = too weak to quantify, mostly under pKd 3.1 to 4
[1] = target: T1, APBA2_1, Q99767
T1 sequence (Q99767 563-664, limits assumed, looked up): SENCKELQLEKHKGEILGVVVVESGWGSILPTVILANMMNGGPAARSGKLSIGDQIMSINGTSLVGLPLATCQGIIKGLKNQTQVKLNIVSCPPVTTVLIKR

[2] = target: T2, DLG3_1, Q92796
T2 sequence (Q92796 125-227, limits assumed, looked up): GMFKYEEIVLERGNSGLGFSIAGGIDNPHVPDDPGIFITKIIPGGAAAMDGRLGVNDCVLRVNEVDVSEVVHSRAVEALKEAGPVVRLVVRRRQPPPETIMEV

[3] = target: T3, DLG3_2, Q92796
T3 sequence (Q92796 221-321, limits assumed, looked up): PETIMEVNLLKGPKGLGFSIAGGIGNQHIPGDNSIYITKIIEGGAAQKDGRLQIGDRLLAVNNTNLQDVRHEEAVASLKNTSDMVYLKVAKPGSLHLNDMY

[4] = target: T4, DVL3, Q92997
T4 sequence (Q92997 244-331, limits assumed, looked up): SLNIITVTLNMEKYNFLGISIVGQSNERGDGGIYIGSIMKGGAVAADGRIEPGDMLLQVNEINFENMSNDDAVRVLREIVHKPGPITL

[5] = target: FRMPD2_1, Q68DX3
Chain of FRMPD2_1, Q68DX3 (Q68DX3 770-861): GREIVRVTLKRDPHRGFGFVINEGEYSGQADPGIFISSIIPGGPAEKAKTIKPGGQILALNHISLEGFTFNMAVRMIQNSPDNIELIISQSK

[6] = target: GOPC, Q9HD26
[7] = target: GORASP2, Q9H8Y8
[8] = target: GRID2IP_2, A4D2P6
Chain of GRID2IP_2, A4D2P6 (A4D2P6 272-370): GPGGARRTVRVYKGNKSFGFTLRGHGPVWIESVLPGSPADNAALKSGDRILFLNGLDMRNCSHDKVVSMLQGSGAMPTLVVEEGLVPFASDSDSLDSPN

[9] = target: GRIP2_4, Q9C0E4
Chain of GRIP2_4, Q9C0E4 (Q9C0E4 446-548): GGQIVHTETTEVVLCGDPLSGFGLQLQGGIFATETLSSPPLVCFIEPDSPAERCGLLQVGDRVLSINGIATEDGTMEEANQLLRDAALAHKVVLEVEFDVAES

[10] = target: IL16_3, Q14005
Chain of IL16_3, Q14005 (Q14005 1107-1207): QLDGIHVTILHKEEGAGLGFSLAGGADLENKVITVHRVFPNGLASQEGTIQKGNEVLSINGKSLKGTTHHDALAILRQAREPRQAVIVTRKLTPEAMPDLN

[11] = target: Inadl_6, Q8NI35
Chain of Inadl_6, Q8NI35 (Q8NI35 1058-1167): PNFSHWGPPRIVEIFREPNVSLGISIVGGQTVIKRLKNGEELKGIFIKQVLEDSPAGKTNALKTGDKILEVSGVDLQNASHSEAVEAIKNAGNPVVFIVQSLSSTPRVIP

[12] = target: Inadl_8, Q8NI35
Chain of Inadl_8, Q8NI35 (Q8NI35 1425-1530): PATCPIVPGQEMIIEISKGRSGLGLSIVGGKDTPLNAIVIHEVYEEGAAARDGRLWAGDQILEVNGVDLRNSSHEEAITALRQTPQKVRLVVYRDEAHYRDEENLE

[13] = target: LIMK2, P53671
Chain of LIMK2, P53671 (P53671 143-248): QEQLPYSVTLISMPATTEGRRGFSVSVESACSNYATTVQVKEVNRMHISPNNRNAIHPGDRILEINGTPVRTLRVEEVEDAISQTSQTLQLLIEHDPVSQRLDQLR

[14] = target: LNX1_1, Q8TBB1
Chain of LNX1_1, Q8TBB1 (Q8TBB1 261-371): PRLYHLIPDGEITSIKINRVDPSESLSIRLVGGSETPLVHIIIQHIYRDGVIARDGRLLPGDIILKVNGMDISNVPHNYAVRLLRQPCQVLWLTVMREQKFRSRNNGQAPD

[15] = target: LNX1_2, Q8TBB1
Chain of LNX1_2, Q8TBB1 (Q8TBB1 371-470): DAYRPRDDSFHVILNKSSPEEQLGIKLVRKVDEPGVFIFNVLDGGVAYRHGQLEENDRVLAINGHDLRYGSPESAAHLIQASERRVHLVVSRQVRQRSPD

[16] = target: MAST1, Q9Y2H9
Chain of MAST1, Q9Y2H9 (Q9Y2H9 962-1065): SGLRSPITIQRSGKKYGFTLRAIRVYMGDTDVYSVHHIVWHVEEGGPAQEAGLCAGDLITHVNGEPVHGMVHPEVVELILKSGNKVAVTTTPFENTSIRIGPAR

[17] = target: MAST2, Q6P0Q8
Chain of MAST2, Q6P0Q8 (Q6P0Q8 1099-1202): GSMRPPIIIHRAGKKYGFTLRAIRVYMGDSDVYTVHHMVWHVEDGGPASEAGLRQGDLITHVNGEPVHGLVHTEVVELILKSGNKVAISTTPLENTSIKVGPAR

[18] = target: T5, MPDZ_12, O75970
T5 sequence (O75970 1857-1958, limits assumed, looked up): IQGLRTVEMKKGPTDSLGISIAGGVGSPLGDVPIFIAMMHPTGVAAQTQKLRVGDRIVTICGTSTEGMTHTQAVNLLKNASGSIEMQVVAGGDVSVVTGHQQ

[19] = target: T6, NHERF3_4, Q5T2W1
T6 sequence (Q5T2W1 373-468, limits assumed, looked up): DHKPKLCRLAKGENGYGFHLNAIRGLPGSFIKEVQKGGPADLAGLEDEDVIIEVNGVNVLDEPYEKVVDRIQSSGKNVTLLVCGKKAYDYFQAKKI

[20] = target: T7, PARD3B_1, Q8TEW8
T7 sequence (Q8TEW8 196-299, limits assumed, looked up): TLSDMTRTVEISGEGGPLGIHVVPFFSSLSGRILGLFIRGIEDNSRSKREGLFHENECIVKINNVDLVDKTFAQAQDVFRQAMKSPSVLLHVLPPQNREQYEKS

[21] = target: PARD3_3, Q8TEW0
Chain of PARD3_3, Q8TEW0 (Q8TEW0 582-685): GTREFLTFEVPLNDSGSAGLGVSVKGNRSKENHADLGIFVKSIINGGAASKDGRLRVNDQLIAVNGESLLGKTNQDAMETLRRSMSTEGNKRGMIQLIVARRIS

[22] = target: T8, RHPN1, Q8TCX5
T8 sequence (Q8TCX5 508-602, limits assumed, looked up): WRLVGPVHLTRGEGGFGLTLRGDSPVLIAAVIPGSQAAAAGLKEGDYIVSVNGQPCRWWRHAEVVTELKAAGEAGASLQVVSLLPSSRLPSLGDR

[23] = target: SCRIB_1, Q14160
Chain of SCRIB_1, Q14160 (Q14160 718-814): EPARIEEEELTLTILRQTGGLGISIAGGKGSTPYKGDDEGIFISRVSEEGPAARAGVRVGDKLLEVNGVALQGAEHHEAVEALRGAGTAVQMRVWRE

[24] = target: SCRIB_2, Q14160
Chain of SCRIB_2, Q14160 (Q14160 857-960): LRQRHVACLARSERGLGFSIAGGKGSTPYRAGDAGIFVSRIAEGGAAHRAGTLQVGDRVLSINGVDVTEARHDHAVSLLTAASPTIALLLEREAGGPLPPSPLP

[25] = target: T9, SHANK1, Q9Y566
T9 sequence (Q9Y566 658-767, limits assumed, looked up): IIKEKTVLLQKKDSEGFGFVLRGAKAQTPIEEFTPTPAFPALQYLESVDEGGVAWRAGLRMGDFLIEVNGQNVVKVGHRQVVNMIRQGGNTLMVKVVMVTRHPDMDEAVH

[26] = target: T10, SNTG2, Q9NY99
T10 sequence (Q9NY99 68-166, limits assumed, looked up): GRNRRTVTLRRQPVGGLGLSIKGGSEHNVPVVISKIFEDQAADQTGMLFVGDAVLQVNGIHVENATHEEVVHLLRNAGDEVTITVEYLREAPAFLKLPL

[27] = target: TJP1_2, Q07157
Chain of TJP1_2, Q07157 (Q07157 181-274): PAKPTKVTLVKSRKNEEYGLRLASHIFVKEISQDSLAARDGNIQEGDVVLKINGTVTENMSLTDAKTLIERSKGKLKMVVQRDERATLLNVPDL

[28] = plain residues with an end cap or a label only (N-terminal biotin on a linker: ado-ado)
[29] = modified: phospho on T at position -2 from the C-terminal residue

LSEFKAMDSF [CTNNA2, P26232] was tested. Which pKd [1, 28] did it give?
The pKd was “below the threshold”.

And the pKd [2, 28]?
Its pKd is “below the threshold”.

What about the pKd [3, 28] of the same binder?
The pKd was 4.16.

What about the pKd [4, 28] of the same binder?
Its pKd is “below the threshold”.

What about the pKd [5, 28] of the same binder?
The pKd was “below the threshold”.

What about the pKd [6, 28] of the same binder?
The pKd was “below the threshold”.

What about the pKd [7, 28] of the same binder?
Its pKd is “below the threshold”.

And the pKd [8, 28]?
Its pKd is “below the threshold”.

And the pKd [9, 28]?
The pKd was “below the threshold”.

And the pKd [10, 28]?
The pKd was “below the threshold”.

And the pKd [11, 28]?
Its pKd is “below the threshold”.

And the pKd [12, 28]?
Its pKd is “below the threshold”.

What about the pKd [13, 28] of the same binder?
The pKd was “below the threshold”.

What about the pKd [14, 28] of the same binder?
The pKd was “below the threshold”.

What about the pKd [15, 28] of the same binder?
Its pKd is “below the threshold”.

And the pKd [16, 28]?
The pKd was “below the threshold”.

And the pKd [17, 28]?
The pKd was “below the threshold”.

And the pKd [18, 28]?
Its pKd is “below the threshold”.

And the pKd [19, 28]?
The pKd was “below the threshold”.

And the pKd [20, 28]?
Its pKd is 3.59.

What about the pKd [21, 28] of the same binder?
Its pKd is “below the threshold”.

And the pKd [22, 28]?
The pKd was “below the threshold”.

And the pKd [23, 28]?
Its pKd is “below the threshold”.

What about the pKd [24, 28] of the same binder?
Its pKd is “below the threshold”.

What about the pKd [25, 28] of the same binder?
Its pKd is “below the threshold”.

What about the pKd [26, 28] of the same binder?
The pKd was “below the threshold”.

What about the pKd [27, 28] of the same binder?
Its pKd is “below the threshold”.

Which results are given for RRVRKLPSTTL [RPS6KA1_-2P, Q15418]?
pKd [1, 29]: below the threshold; pKd [2, 29]: below the threshold; pKd [3, 29]: below the threshold; pKd [4, 29]: below the threshold; pKd [5, 29]: below the threshold; pKd [6, 29]: below the threshold; pKd [7, 29]: 3.71; pKd [8, 29]: below the threshold; pKd [9, 29]: below the threshold; pKd [10, 29]: below the threshold; pKd [11, 29]: below the threshold; pKd [12, 29]: below the threshold; pKd [13, 29]: below the threshold; pKd [14, 29]: below the threshold; pKd [15, 29]: below the threshold; pKd [16, 29]: below the threshold; pKd [17, 29]: below the threshold; pKd [18, 29]: below the threshold; pKd [19, 29]: below the threshold; pKd [20, 29]: 3.9; pKd [21, 29]: below the threshold; pKd [22, 29]: below the threshold; pKd [23, 29]: below the threshold; pKd [24, 29]: below the threshold; pKd [25, 29]: below the threshold; pKd [26, 29]: below the threshold; pKd [27, 29]: below the threshold
